Measured values as given in the supplement of paper PMC10567573.
± gives the standard deviation.

Assay: protein stability index of a GFP-peptide fusion (GPS, HEK-293T) (PSI 1-6); higher = more stable
[1] = treatment: DMSO, c terminus: a fixed tail appended
[2] = treatment: MLN4924 1 uM, 8 h, c terminus: a fixed tail appended
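Also: 24-mer peptide tiles fused after GFP, lentivirally expressed, FACS-sorted into six equal bins by GFP/DsRed ratio, decoded by Illumina sequencing, PSI is the read-weighted mean bin number.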

| Sequence | protein stability index [1] | protein stability index [2] | protein stability index (treatment: DMSO, c terminus: native) | protein stability index (treatment: MLN4924 1 uM, 8 h, c terminus: native) |
| --- | --- | --- | --- | --- |
| GIIVKDARLNGSVASYILASHNGI [TENT5D] | 2.66 ± 0.045 | 2.189 ± 0.003 |  |  |
| GKAYRFLFGFSAVSIMYLVLVLAV [JAGN1] | 2.22 ± 0.1 | 2.12 ± 0.35 |  |  |
| GKGWKATRLFHDSAVTSVRILQDE [DCAF4] | 3.39 ± 0.21 | 3.67 ± 0.34 |  |  |
| GKKVSNQRFEVIEFDDGSGSVLRI [PTPRD] | 2.38 ± 0.74 | 2.5 ± 0.26 |  |  |
| GKMVEEVDGRATQKLIVNLKPEKS [PTPRD] | 4.69 ± 0.13 | 4.66 ± 0.29 |  |  |
| GKVIVWDSFTTNKEHAVTMPCTWV [GNB5] | 2.55 ± 0.37 | 2.27 ± 0.36 |  |  |
| GLPAQQVGPWLGQLQELLHHCDDH [RSAD1] | 3.6 ± 0.34 | 3.61 ± 0.29 |  |  |
| GLSHSHDLSMDGLFGTIAYLPPER [RIPK4] | 3.28 ± 0.32 | 3.42 ± 0.25 |  |  |
| GLSTEAEQPFIPVEVLVDLFLKEG [PRAME] | 3.05 ± 0.11 | 3.3 ± 0.33 |  |  |
| GLWSRISHLVLPVQPVSSIEEQGC [TOR1AIP2] | 2.44 ± 0.26 | 2.64 ± 0.38 |  |  |
| GMDLNLEAEALAGTGLVLDEQLNE [HDAC6] | 5.4 ± 0.44 | 5.33 ± 0.24 |  |  |
| GMRYAFIGPLETMHLNAEGMLSYC [CRYL1] | 2.56 ± 0.62 | 2.72 ± 0.74 |  |  |
| GNKCDLEDERVVGKEQGQNLARQW [RAP1B] | 4.7 ± 0.12 | 4.73 ± 0.14 |  |  |
| GNYMEAKSVLIPVYGVSKETFLSF [RHOBTB3] | 2.69 ± 0.53 | 2.31 ± 0.34 |  |  |
| GPAGHSKGELAPELGEEPQPRDEE [POLD4] | 5.41 ± 0.23 | 5.43 ± 0.15 |  |  |
| GPALPNGPLLGTNGATDDSKTNLI [ELAVL3] | 4.99 ± 0.17 | 4.93 ± 0.33 |  |  |
| GPFGGFFASGFKRAFKIKDFANTI [CDS1] | 2.38 ± 0.31 | 2.44 ± 1 |  |  |
| GPGAHILRRKSPASGQGPMCNVKA [ADAMTS4] | 4.05 ± 0.34 | 3.76 ± 0.36 |  |  |
| GPGDSQGRKRRQTSMTDFYHSKRR [CDKN1A] | 3.62 ± 0.42 | 4.78 ± 0.19 |  |  |
| GPKESLPVIAAPSMWTRPQIKDFK [ACBD3] | 3.8 ± 0.29 | 3.79 ± 0.16 |  |  |
| GPPPAQGSPGDGGLQDQVGAWGLP [EMID1] | 5.02 ± 0.12 | 5.03 ± 0.4 |  |  |
| GPSHPDTSYYIRYRGAVYADSGNF [FEM1C] | 2.11 ± 0.45 | 2.54 ± 0.35 |  |  |

| Sequence | protein stability index [1] | protein stability index [2] | protein stability index (treatment: DMSO, c terminus: native) | protein stability index (treatment: MLN4924 1 uM, 8 h, c terminus: native) |
| --- | --- | --- | --- | --- |
| GPVRPAIPPPLSSVYAWGGGLGTP [NEK8] | 3.18 ± 0.2 | 3.18 ± 0.27 |  |  |
| GQAEEELIKAKSQARLEEQQRLAH [LRRC45] | 5.13 ± 0.26 | 4.91 ± 0.38 |  |  |
| GQDTFCQGKADGLYPNPRERSSFY [CHIT1] | 3.71 ± 0.28 | 3.57 ± 0.35 |  |  |
| GRDSEGPAEGEGRLGRCMRRLRDM [KCNG1] | 4.99 ± 0.15 | 4.76 ± 0.15 |  |  |
| GRFKLSIPHTHLLATLDPLALDRE [WDR88] | 2.76 ± 0.24 | 2.76 ± 0.34 |  |  |
| GRHHSQSTEVQAHPYSTTFQESAS [TEKT4] | 4.31 ± 0.2 | 4.46 ± 0.3 |  |  |
| GRIIAVFKPKNEEPYGHLNPKWTK [PI4K2A] | 2.09 ± 0.24 | 2.2 ± 0.44 |  |  |
| GRYVKENCKPLKSYMLQDSLEHVQ [CLK3] | 3.1 ± 0.23 | 3.08 ± 0.48 |  |  |
| GSWGSFQLPGLLNFGEFKCSDSDK [CLCN6] | 3.99 ± 0.29 | 4.17 ± 0.57 |  |  |
| GTILNYLRDGAVPLPESRREIEEL [KCTD10] | 3.98 ± 0.19 | 4.15 ± 0.073 |  |  |
| GVSKVGLRKIIDFIYTAKLSLNMD [KLHL13] | 2.81 ± 0.75 | 2.83 ± 0.63 |  |  |
| GWETRGDRKARKPLVEKKRRARIN [HES6] | 4.31 ± 0.36 | 4.54 ± 0.12 |  |  |
| GYEKRNLARVPKLDLKRQYDRVAQ [CHGB] | 3.37 ± 0.55 | 3.11 ± 0.29 |  |  |
| GYRCFVCPVEYNNDTNSFTVDCEP [CDS2] | 2.35 ± 0.47 | 2.58 ± 0.51 |  |  |
| HDCAESGSLDIMKMLLMYCAKMEK [FEM1C] | 2.16 ± 0.3 | 2.13 ± 0.22 |  |  |
| HDEDIKTTNVKSASRQKTSLGIEL [ZNF396] | 4.5 ± 0.27 | 4.58 ± 0.14 |  |  |
| HDESPGNNVVDISVPPTTDGQKPN [RAB11B] | 5.46 ± 0.3 | 5.57 ± 0.12 |  |  |
| HDGKNQPGVAYPAFLGPDEAFALP [SPSB4] | 4.12 ± 0.3 | 4.06 ± 0.21 |  |  |
| HDPLWRRHCKKYWLISEEEKTQKN [FBXO3] | 3.56 ± 0.45 | 3.99 ± 0.34 |  |  |
| HECVNMEESYYCRCHRGYTLDPNG [MATN2] | 3.44 ± 0.67 | 3.36 ± 0.52 |  |  |
| HENAVQGSAVEVQTYQPPWKALSE [ISL2] | 4.15 ± 0.23 | 4.02 ± 0.17 |  |  |
| HFDATNLHKQTASDLLDEKEIAKN [FEM1C] | 5.38 ± 0.15 | 5.31 ± 0.29 |  |  |

| Sequence | protein stability index [1] | protein stability index [2] | protein stability index (treatment: DMSO, c terminus: native) | protein stability index (treatment: MLN4924 1 uM, 8 h, c terminus: native) |
| --- | --- | --- | --- | --- |
| HFGWYLGWGDCVWLPYLYTLQGLY [DHCR7] | 3.09 ± 0.84 | 3.29 ± 0.11 |  |  |
| HFPASPFWSVMFFLMLINLGLGSM [SLC6A17] | 3.67 ± 0.42 | 3.4 ± 0.25 |  |  |
| HFQEAIDFIDCVREKGGKVLVHCE [DUSP5] | 2.76 ± 0.39 | 2.76 ± 0.53 |  |  |
| HFWQLFNALTLFNLAQDPQCKEWQ [TMEM120A] | 3.17 ± 0.61 | 3.72 ± 0.76 |  |  |
| HGLLGSPVRAAASSPVTTLTQTMH [CDC25B] | 3.7 ± 0.21 | 3.79 ± 0.17 |  |  |
| HGPQLPTGIEGNWGRLLEQVGTMA [ZBED2] | 3 ± 0.35 | 3.08 ± 0.24 |  |  |
| HGWLRPEMRTKEQILELLVLEQFL [ZNF263] | 2.46 ± 0.47 | 2.61 ± 0.43 |  |  |
| HIFGDLDSYIPLHEDLLTRIGEAT [NET1] | 2.96 ± 0.14 | 2.93 ± 0.17 |  |  |
| HIKLHSGEKPFKCHLCNYACRRRD [IKZF1] | 2.55 ± 0.23 | 2.93 ± 0.61 |  |  |
| HIRHLGWNPDARYSEHFLQEAKLL [GLT8D2] | 2.49 ± 0.17 | 2.79 ± 0.4 |  |  |
| HLEGYHGTAGDSMSYHSGSVFSAR [TNXB] | 3.16 ± 0.43 | 3.47 ± 0.44 |  |  |
| HQPVVRQCGPQTGLQSPGTLQPPE [TBX5] | 4.41 ± 0.27 | 4.63 ± 0.12 |  |  |
| HRIWMYNCHIGGSFSEETEKKFEH [LOXL2] | 2.42 ± 0.21 | 2.62 ± 0.34 |  |  |
| HRWQVDLQLGDGGGCTVGVAGEGV [TRIM15] | 3.5 ± 0.27 | 3.38 ± 0.43 |  |  |
| HSFQSSHRPSLNSVSLQINCQSVA [DLC1] | 2.95 ± 0.29 | 2.98 ± 0.28 |  |  |
| HTLNNLVEKLLREEAEGARWTSYR [TRIM35] | 2.48 ± 0.2 | 2.57 ± 0.19 |  |  |
| HTRSITSCCFDPDSQRVASVSLDR [WDR88] | 3.53 ± 0.4 | 3.44 ± 0.39 |  |  |
| IAMTSGTVQPKQDAFANFANFSK [CLINT1] |  |  | 4.22 ± 0.22 | 4.17 ± 0.31 |
| IANPNSLNHVKSMWYPEIKHFCPR [RHOBTB1] | 2.22 ± 0.13 | 2.4 ± 0.26 |  |  |
| IASFIRGPNPSKLIQQFLTLRPDQ [CDS2] | 2.24 ± 0.17 | 2.33 ± 0.22 |  |  |
| IDHYVGIARDQTKSIVEKIQAKLP [RTN3] | 3.05 ± 0.074 | 3.22 ± 0.39 |  |  |
